Experimental findings from article PMC2922993 (Nature chemical biology, 2010) are described below.

The target in assay [1] is T1, inhibitor of growth 2 (ING2) PHD finger.
T1 sequence (Q9H160 whole entry, species assumed, looked up): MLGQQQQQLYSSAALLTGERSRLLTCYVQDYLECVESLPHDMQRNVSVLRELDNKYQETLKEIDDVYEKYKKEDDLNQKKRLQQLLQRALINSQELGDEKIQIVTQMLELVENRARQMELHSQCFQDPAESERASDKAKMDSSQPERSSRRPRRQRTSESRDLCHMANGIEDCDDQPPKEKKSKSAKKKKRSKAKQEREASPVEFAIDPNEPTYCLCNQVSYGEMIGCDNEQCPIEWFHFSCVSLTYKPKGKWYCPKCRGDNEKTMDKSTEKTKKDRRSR
The assay is described as follows: ITC. A general note: ITC needs no label: the signal is the heat of the interaction.

Assay [2] concerns the target BRAF-HDAC Complex 80 (BHC80)-PHD finger (UniProt Q96BD5 486-543). Nature of the assay: ITC.

Non-standard residues stand in square brackets, D forms with d. No end group written: not given here. Lys(Me3) = C[N+](C)(C)CCCC[C@H](N)C(=O)O; Arg(Me2s) = CN=C(NC)NCCC[C@H](N)C(=O)O

Chain of BRAF-HDAC Complex 80 (BHC80)-PHD finger (Q96BD5 486-543, one chain of several): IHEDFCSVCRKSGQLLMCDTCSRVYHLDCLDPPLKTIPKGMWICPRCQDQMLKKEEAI

B1: H3 peptide bearing K4me3 and R2me2s marks (peptide)
chain: A[Arg(Me2s)]T[Lys(Me3)]QTARKSTG
In general, Kd refers to the free concentration of one partner at which half of the binding sites on the other are occupied at equilibrium, for simple one-to-one binding. Low readings indicate tighter binding, high ones weaker binding. Take B1: the Kd in assay [1] came to 17.3 µM.

B2: H3K4me3 peptide (ITC) (peptide)
chain: ART[Lys(Me3)]QTARKSTG
Take B2: binding in assay [1] was characterised by a dissociation constant (Kd) of 0.98 µM.

B3: H3R2me2s- modified peptide (peptide)
chain: A[Arg(Me2s)]TKQTARKSTG
In assay [2], B3 had a Kd of 57.2 µM.
